Positions count from the first letter of the chain named. Names and notes keep the numbering of the source. Where no end group is shown, it is not given here.
Assays:
sPLA2-IIA = biological target: T1, sPLA2-IIA (Homo sapiens, UniProt P14555); test: ELISA-type binding of S2 peptides to immobilized sPLA2-IIA; conditions: GST-tagged peptides; sPLA2-IIA 20 μg/ml coating
T1 construct: made in house
T1 sequence (P14555 21-144): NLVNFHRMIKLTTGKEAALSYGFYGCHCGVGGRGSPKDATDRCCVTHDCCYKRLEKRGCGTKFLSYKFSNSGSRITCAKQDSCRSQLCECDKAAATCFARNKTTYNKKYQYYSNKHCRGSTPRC
Experimental: ELISA-type binding assays were performed as described previously (18). Briefly, wells of 96-well Immulon 2 microtiter plates (Dynatech Laboratories, Chantilly, Va.) were coated with 100 μl 0.1 M NaHCO3 containing sPLA2-IIA, γC399tr, FN-H120 for 2 h at 37° C. Remaining protein binding sites were blocked by incubating with PBS/0.1% BSA for 30 min at room temperature. After washing with PBS, S2 peptides were added to the wells and incubated in PBS for 2 h at room temperature. After unbound S2 peptides were removed by rinsing the wells with PBS, bound S2 peptides (GST-tagged) were measured using HRP-conjugated anti-GST antibody and peroxidase substrates.

[1] = test system: integrin activation by FKN-CD; conditions: cited from earlier work
[2] = biological target: T2, sPLA2-IIA catalytic activity (Homo sapiens, UniProt P14555); conditions: clinical trials; cited from earlier work
T2 sequence (P14555 21-144): T1 sequence (P14555 21-144)

[3] = test system: other ligands (e.g., SDF-1, IGF-1); test: Additional testing: binding of linear and cyclic site 2 peptides to other ligands
Excerpt: Data are shown in FIG. 12 comparing cyclic site 2 peptides (β1 and β3) binding to sPLA2-IIA or FKN.

FKN-CD = biological target: T3, FKN-CD (Homo sapiens, UniProt P78423); conditions: cited from earlier work
T3 sequence (P78423 25-100 limits assumed): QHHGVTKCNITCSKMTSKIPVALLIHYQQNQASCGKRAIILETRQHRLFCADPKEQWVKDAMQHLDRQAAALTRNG

U937 cells = test: sPLA2-IIA-induced chemotaxis in modified Boyden chambers; format: cell-based, human; conditions: 1 μg/ml sPLA2-IIA, 20 μg/ml peptide, 5 h
Experimental: FIG. 11. S2-β1 peptide suppresses sPLA2-IIA-induced chemotaxis. Chemotaxis was measured in modified Boyden chambers. 1 μg/ml sPLA2-IIA and 20 μg/ml S2-β1 peptide or control peptides in 600 μl RPMI 1640 medium were placed in lower chamber, and U937 cells (2×10^5 cells in 100 μl RPMI 1640 medium) were placed in the upper chamber. After 5 hours of incubation at 37° C., cells in the lower chamber was counted.
Chemotaxis was measured in modified Boyden Chambers (Transwell). One μg/ml sPLA2-IIA and 20 μg/ml S2-β1 peptide or control peptides in 600 μl RPMI 1640 medium were placed in the lower chamber, and U937 cells (2×10^5 cells in 100 μl RPMI1640 medium) were placed in the upper chamber. After 5 h incubation at 37° C., cells in the lower chamber were counted.

[4] = test system: integrin αvβ3 on U937, αvβ3-K562 and β3-CHO cells; test: Flow cytometry: binding of FITC-labeled γC399tr to αvβ3 on the cell surface; format: cell-based, human
Experimental: (§1) The cells were cultured to nearly confluent in RPMI 1640/10% FCS (K562 and U937) or DMEM/10% FCS (CHO cells). The cells were resuspended with RPMI 1640/0.02% BSA or DMEM/0.02% BSA and incubated for 30 min at room temperature to block remaining protein binding sites. The cells were then incubated with WT sPLA2-IIA or mutants for 5 min at room temperature and then incubated with FITC-labeled integrin ligands (γC399tr, FN-H120, FN8-11, and ADAM15) for 15 min at room temperature. For blocking experiments, sPLA-IIA was preincubated with S2-β1 peptide for 30 min at room temperature. The cells were washed with PBS/0.02% BSA and analyzed by FACSCalibur (Becton Dickinson, Mountain View, Calif.). For inhibition studies using Cmpd21, sPLA2-IIA was preincubated with Cmpd21 for 30 minutes at room temperature.

[5] = test system: integrin α4β1 on U937, α4-K562 and α4-CHO cells; test: Flow cytometry: binding of FITC-labeled fibronectin H120 fragment to α4β1 on the cell surface; format: cell-based, human; conditions: for binding of H120 to α4β1 (α4β1 activation): U937, α4-K562, α4-CHO cells, sPLA2-IIA WT or mutants
Experimental: as §1

[6] = test system: integrin α5β1 on U937, K562 and CHO cells; test: Flow cytometry: binding of FITC-labeled FN8-11 to α5β1 on the cell surface; format: cell-based, human, Chinese hamster; conditions: sPLA2-IIA WT or mutants
Experimental: as §1

[7] = biological target: T4, integrin αvβ3 on U937, αvβ3-K562 and β3-CHO cells (Homo sapiens, UniProt P05106+P06756); test: Flow cytometry: binding of FITC-labeled ADAM15 disintegrin domain to αvβ3; format: cell-based; conditions: sPLA2-IIA 20 μg/ml
T4 construct: expressed in transfected cells; host or cells: U937 (endogenous αvβ3); αvβ3-K562 (transfected human αvβ3); β3-CHO (human β3 with hamster αv)
Experimental: as §1

[8] = test system: integrins αvβ3, α4β1, α5β1; test: sPLA2-IIA-induced integrin activation (present study overall)
Experimental: ELISA-type binding assays were performed as described previously (18). Briefly, wells of 96-well Immulon 2 microtiter plates (Dynatech Laboratories, Chantilly, Va.) were coated with 100 μl 0.1 M NaHCO3 containing γC399tr or ADAM15 for 2 h at 37° C. Remaining protein binding sites were blocked by incubating with PBS/0.1% BSA for 30 min at room temperature. After washing with PBS, soluble recombinant αvβ3 (5 μg/ml) in the presence or absence of sPLA2-IIA (WT or mutants) was added to the wells and incubated in HEPES-Tyrodes buffer (10 mM HEPES, 150 mM NaCl, 12 mM NaHCO3, 0.4 mM NaH2PO4, 2.5 mM KCl, 0.1% glucose, 0.1% BSA) with 1 mM CaCl2 for 2 h at room temperature. After unbound αvβ3 was removed by rinsing the wells with binding buffer, bound αvβ3 was measured using anti-integrin β3 mAb (AV-10) followed by HRP-conjugated goat anti-mouse IgG and peroxidase substrates.
The cells were cultured to nearly confluent in RPMI 1640/10% FCS (K562 and U937) or DMEM/10% FCS (CHO cells). The cells were resuspended with RPMI 1640/0.02% BSA or DMEM/0.02% BSA and incubated for 30 min at room temperature to block remaining protein binding sites. […] The cells were washed with PBS/0.02% BSA and analyzed by FACSCalibur (Becton Dickinson, Mountain View, Calif.). […]

[9] = test system: integrin ligands used in this study; test: ELISA: binding of sPLA2-IIA to the integrin ligands used; conditions: ligands coated at 2 μM
Experimental: FIG. 10. Lack of binding of sPLA2-IIA to integrin ligands used in the present study. Wells of 96-well microtiter plates were coated with ligands (2 μM coating concentration) and the remaining protein-binding sites were blocked with BSA. The wells were then incubated with sPLA2-IIA ([…] in PBS) for 2 hours at room temperature, and bound sPLA2-IIA was determined using HRP-conjugated anti-6His antibody. sPLA2-IIA (20 ng/ml coating concentration, 1% of input sPLA2-IIA) was used as a positive control. Data are shown as means+/−SEM of triplicate experiments.

[10] = biological target: T5, β1 integrins on U937, K562 and α4-K562 cells (Homo sapiens, UniProt P05556); test: Reactivity of β1 integrins to activation-dependent antibodies HUTS4 and HUTS21; format: cell-based; conditions: U937, K562, α4-K562 cells in RPMI1640; preliminary experiments
T5 construct: endogenous in cells; host or cells: U937, K562, α4-K562
Excerpt: It is unclear whether sPLA2-IIA-induced integrin activation requires global conformational changes in integrins. In current models of integrin activation, activation of β1 integrins induces a swing-out movement of the hybrid domain and exposes epitopes recognized by activation-dependent antibodies (anti-human β1 HUTS4 and HUTS21)(45). The HUTS4 and HUTS21 epitopes are located in the hybrid domain of […] (46,47). […] It is possible that the binding of sPLA2-IIA to site 2 induces only local conformational changes within the headpiece of integrins. […] It was shown that sPLA2-IIA (the current study) FKN-CD (19) actually bind to site 2 and the binding of sPLA2-IIA and FKN to site 2 is required for integrin activation using the peptides from site 2. It is likely that integrins that are activated by sPLA2-IIA and FKN-CD through site 2 have conformations similar to the open-headpiece αvβ3 that has no global conformational changes compared to the closed-headpiece form. The open- and closed-headpiece conformations of αvβ3 may really reflect the fact that integrins can be activated without global conformational changes through allosteric mechanism.

Listera = conditions: cited from earlier work

T5 sequence (P05556 21-798): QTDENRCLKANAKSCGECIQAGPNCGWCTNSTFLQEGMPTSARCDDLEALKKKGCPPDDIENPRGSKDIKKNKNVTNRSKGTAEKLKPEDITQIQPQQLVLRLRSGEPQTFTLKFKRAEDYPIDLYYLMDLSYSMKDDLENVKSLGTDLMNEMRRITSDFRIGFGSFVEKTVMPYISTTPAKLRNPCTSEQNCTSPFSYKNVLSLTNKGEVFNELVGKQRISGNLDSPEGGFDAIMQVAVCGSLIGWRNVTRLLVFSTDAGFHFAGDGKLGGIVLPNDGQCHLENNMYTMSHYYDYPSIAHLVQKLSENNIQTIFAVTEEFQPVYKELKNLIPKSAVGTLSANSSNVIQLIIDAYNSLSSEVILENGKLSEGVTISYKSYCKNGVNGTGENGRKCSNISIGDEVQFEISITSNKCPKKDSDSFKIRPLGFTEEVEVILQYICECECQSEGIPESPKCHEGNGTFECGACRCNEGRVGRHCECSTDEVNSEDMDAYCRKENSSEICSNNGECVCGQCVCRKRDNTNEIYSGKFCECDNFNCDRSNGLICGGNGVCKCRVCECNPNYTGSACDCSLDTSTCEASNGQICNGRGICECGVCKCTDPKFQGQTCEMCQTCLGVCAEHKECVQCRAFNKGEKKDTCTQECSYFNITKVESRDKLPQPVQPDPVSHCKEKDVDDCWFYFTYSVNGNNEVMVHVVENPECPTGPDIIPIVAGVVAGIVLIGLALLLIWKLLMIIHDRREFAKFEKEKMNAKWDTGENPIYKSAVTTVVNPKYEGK
T5 sequence (P08648 42-894 partner limits assumed): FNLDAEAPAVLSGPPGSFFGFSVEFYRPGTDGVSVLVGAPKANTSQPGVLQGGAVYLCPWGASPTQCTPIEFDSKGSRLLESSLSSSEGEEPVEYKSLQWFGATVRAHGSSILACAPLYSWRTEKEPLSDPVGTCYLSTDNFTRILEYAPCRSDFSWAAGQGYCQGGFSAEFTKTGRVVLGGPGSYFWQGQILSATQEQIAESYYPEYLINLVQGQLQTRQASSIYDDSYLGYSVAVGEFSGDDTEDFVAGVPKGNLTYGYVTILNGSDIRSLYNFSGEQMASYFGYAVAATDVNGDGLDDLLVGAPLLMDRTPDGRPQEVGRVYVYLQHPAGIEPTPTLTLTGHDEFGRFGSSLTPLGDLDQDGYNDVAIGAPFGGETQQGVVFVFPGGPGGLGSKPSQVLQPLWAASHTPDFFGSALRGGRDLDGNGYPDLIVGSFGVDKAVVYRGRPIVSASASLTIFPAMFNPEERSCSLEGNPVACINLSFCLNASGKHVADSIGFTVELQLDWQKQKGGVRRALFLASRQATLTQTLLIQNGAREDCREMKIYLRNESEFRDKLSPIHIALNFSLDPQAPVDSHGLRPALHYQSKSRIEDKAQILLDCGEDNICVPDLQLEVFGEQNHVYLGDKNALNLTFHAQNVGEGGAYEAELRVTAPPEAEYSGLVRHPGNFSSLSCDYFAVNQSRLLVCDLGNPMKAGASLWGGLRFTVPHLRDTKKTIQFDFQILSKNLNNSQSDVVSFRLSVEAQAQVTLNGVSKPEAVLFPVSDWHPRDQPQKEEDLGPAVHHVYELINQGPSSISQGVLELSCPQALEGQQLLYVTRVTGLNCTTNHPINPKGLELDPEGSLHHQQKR
T5 sequence (P08648 895-1049 partner limits assumed): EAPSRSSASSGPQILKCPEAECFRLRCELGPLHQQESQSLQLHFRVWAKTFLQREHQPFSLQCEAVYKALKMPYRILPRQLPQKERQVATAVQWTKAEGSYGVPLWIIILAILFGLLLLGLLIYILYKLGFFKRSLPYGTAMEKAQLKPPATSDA

VHDSHYSGQGAMSDNTNSPQT [Compound S2-β3scr, scrambled site 2 peptide, GST fusion protein, control, reference compound]
binding of site 2 peptide to immobilized sPLA2-IIA (sPLA2-IIA): did not bind to sPLA2-IIA
FKN-CD-induced integrin activation [1]: does not

CCc1c(C(=O)C(N)=O)c2c(OCC(=O)OC)cccc2n1Cc1ccccc1 [S-3013/LY333013]
therapeutic effect in rheumatoid arthritis and asthma [2]: failed to demonstrate a significant therapeutic effect

CCc1c(C(=O)C(N)=O)c2c(OCC(=O)[O-])cccc2n1Cc1ccccc1.[Na+] [S-5920/LY315920Na]
therapeutic effect in rheumatoid arthritis and asthma [2]: failed to demonstrate a significant therapeutic effect

linear β1 peptide: linear peptide comprising SEQ ID NO:1, GST fusion (LPNDGQCHLENNMYTMSHYY; also: GST fusion)
binding to other ligands (e.g., SDF-1, IGF-1) [3]: did not bind to other ligands

QPNDGQSHVGSDNHYSASTTM [S2-β3 peptide, site 2 peptide, residues 267-287 of β3, C273 changed to S, GST fusion protein]
binding to FKN-CD (FKN-CD): directly binds to FKN-CD
FKN-CD-induced integrin activation [1]: suppresses FKN-CD-induced integrin activation

S2-β1 peptide: site 2 peptide from integrin β1 (β1 275-294, SEQ ID NO:1), made as GST fusion protein (LPNDGQCHLENNMYTMSHYY; also: made as GST fusion protein)
binding of site 2 peptide to immobilized sPLA2-IIA (sPLA2-IIA): bound better to sPLA2-IIA in a concentration-dependent manner than S2-β3 peptide
chemotaxis induced by sPLA2-IIA (U937 cells): suppressed chemotaxis induced by sPLA2-IIA

B1: WT sPLA2-IIA: recombinant human secreted phospholipase A2 type IIA, wild type (protein)
chain: T1 sequence (P14555 21-144)
activation of αvβ3 on the cell surface (FITC-γC399tr binding) [4]: activated αvβ3
binding of H120 to α4β1 (α4β1 activation) [5]: markedly increased the binding of H120 to α4β1
sPLA2-IIA concentration of maximum H120 binding ([5]; α4-CHO cells, sPLA2-IIA up to 500 μg/ml, binding reduced at higher concentrations): 20 µg/mL
binding of FITC-labeled FN8-11 to α5β1 (α5β1 activation) [6]: markedly increased the binding of FITC-labeled FN8-11
binding of FITC-labeled ADAM15 disintegrin domain to αvβ3 [7]: markedly enhanced
sPLA2-IIA concentration required to detect integrin activation [8]: > 5 µg/mL
direct interaction of sPLA2-IIA with integrin ligands [9]: does not directly interact with the integrin ligands used in this study
reactivity of β1 integrins to HUTS4 and HUTS21 [10]: did not change reactivity of β1 integrins to HUTS4 and HUTS21
concentration that kills Listera (Listera): < 0.1 nM

B2: G29S/D48K: M-type receptor-binding defective mutant of sPLA2-IIA (protein)
chain: T1 sequence (P14555 21-144) with G29S, D48K
modifications: left off: small tags and cut ends
binding of H120 to α4β1 (α4β1 activation) [5]: induced α4β1 activation
binding of FITC-labeled FN8-11 to α5β1 (α5β1 activation) [6]: induced α5β1 activation

B3: R74E/R100E: integrin-binding defective mutant of sPLA2-IIA (protein)
chain: T1 sequence (P14555 21-144) with R74E, R100E
modifications: left off: small tags and cut ends
binding of FITC-labeled FN8-11 to α5β1 (α5β1 activation) [6]: did not
